Here are results for 35 sequences from the domain aggregation screens of Martell et al. (2025).
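Also: 20 min heating vs room temperature control held 20 min.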

This data set can be described thus: soluble fraction after stress (log2 fold change); higher = more stays soluble; pooled small domains, quantitative proteomics. Conditions: stress: 75 degC.
With “HMGSLAVVPSLTGKTLQEAQSKAADYGLALEIEGYVASTAVDYGRIVSQSPDAGFSVKSGSSVKVSVSAG”, the “soluble fraction (log2)” value is -0.0619. As for “HMGSLGRAIRSRREKMKVGLEELAAKTGLSESHISDIEEGRGFAPVGDILKIARALTIDPGELLK”, the figure is 0.49. Next, “HMGSLGSLLKSVRNQRGLSRQQMAQSLNIGVRAIEQIEEGERKPDLELLNRYARGLMDPSVT”: -0.166.

In the case of “HMGSLKEKIVLLEKLYQQNPSEEIKLLLINTYQLNHQYIQARKLFFTLTPEQKEKLPLASEFLIFL”, the “soluble fraction (log2)” value was -1.04. Next, “HMGSLNDQVMKYIDALPSAFNKRELDFLIERGVKEFALNGEYLEKAIINEYKLTADTYHRER”: 0.0903; “HMGSLQPLLLAAIDALQTHIRSGLPFRVEERLAELDQFRTELQNGSVPPQRGVNRLWAFYEDEFRL”: -1.06. As for “HMGSLRSALDGIPGIGEQYQKRLLAQFGSVKAMRSASVEDFEAVRGIGRAKAQALYDALHAG”, the figure is -0.221; as for “HMGSLVVVPNLVGQNYDEVKLSTKYSDFEIVQKNTEYSEAPAGQIIKQDPEAGTKVKKHSTINVTVSK”, -0.167. As for “HMGSQELIQLGERIRQKRKDSHLTQETFAEKAGISVNTVSRIEGGQAAMSIEIFAKLVEILDADANELLG”, the figure is -1.39; as for “HMGSRAEAKEFLQTMLADGRQLATDMEEARQAHDIADRTLRRARKELNVQVYRDGNAWYWELPTPIK”, -0.585; as for “HMGSREVPFSDFISKVESGSVLEVVLRGRQVEGLTDANERFQTQIPNYPALFEILERNQVRTRVEPT”, -0.0642. With “HMGSTATVIASRLNMRASASTTGALLTKIPNGATVTVLGTTGAWSHIRYGSYTGYVMSQYLRING”, the “soluble fraction (log2)” value is -3.1. Next, “HMGSTVRIVVPAADIPAYKDIQPSDLEYREVPKDEISEDAVTDPQEVINKYSTSPLYAGWPINKNIIET”: -0.0405. Next, “HMGSYANAWQLAEHAAKDMLGEVIYLLDGKEVHAGILETMSAESIKTASAENVDGKVVIRLVSK”: -0.15. Next, “HMGSYIGEAKAKEIALSHAGVSASQATFVRSQFEYDDGRAVYDVDFWSGNKEYDYEIDAKSGTIVSYDFD”: -0.736; “HMGSYVVQLGAFAIRANAEKLAREVDGSIATSGRFSLVRVGPFTSRGQAEQALAKLRARGYSDALIHSL”: -2.39; “HMGTDFRPVFQYVDELVRAGEFTNLKGMIYFTDGRGIFPEKKPDYDAAFVFLDDGYDPPDVPVWAIKLVL”: -0.0422. “HMGTGSSAERITMLNSILERQIQAMEIQGNPDAPIVNIQKIYTTLQRIVETAGLKDVDQFFMNPLQGQKEM”: the “soluble fraction (log2)” value is -0.134. As for “HMGTIRAPMPGTILKINVVDGDSVTKGDVLLILESMKMENSITSPKTGSVTSVYVSEGDPVQHGETLIDL”, the figure is -0.196; as for “HMGTISKRINPSGTTVYRAVIRIRKNGYPNFTESRTFSKKSMAAEWVKRREAEIELNPDILFG”, -2.57; as for “HMGTLSLLVQKLMAVGLEGAKASEIVERFDRERIERQINALPSRKIKSSRTGFLIRAIELDIPVE”, -2.58. Next, “HMGTPKMPLSLYLSMVENLRSLKRFALVNQQVKDGFVFFNDVAGIKRLQELLNYHNTGEKPSE”: -2. Next, “HMGTRIQAVMEDIQSRIAARTYLPGTRLPSVRAQAQAMQVSVSTVVEAYERLAAEGVIASRPGSGFYVAGP”: -3.05; “HMGTRPAYAADAPNPQKRFIYHRIVDQLRNKATGAPISYRAIAAETGVSVQTVINIKNRMNQMLSEK”: -1.27; “HMGTRPIQIASFSKEENAKRAVEALAKIGITAQPQKSGSATKAVWGVVANGDADLLAKIKAAGFADAYFL”: 0.0154. As to “HMGTRTILGIDPGSRKTGFGIIRLDGSRTHYVSSGVIRIPDTALPERLKIIFASLNEIIQQFQPQEV”, the “soluble fraction (log2)” value is -0.339. As for “HMGTRYVEFVIPGTGNHEVRIVSSNGSRQNVEVAGTYPGGARLRTKVDNGVRRVSFYVDNRLVEEKQ”, the “soluble fraction (log2)” value is -0.26. As for “HMGTSFKITFYKDAFQVDDGPIRMLNDPANQKFVDEVSQGYAPKELIGQGGKAPEIDIIDKRSENAPT”, the figure is 0.156; as for “HMGTVFTDIMTDIASGKFPNVFPDSLEAQIQKNVTMAPDKLSATLQYGDKSVILPTTKGKEAAEAAVKAA”, 0.000803; as for “HMGTYTSALDGIKGLGKKRKMLLLNTYKSIDVLKSVPLTELSQLIPREVAEALLTKLNRVDD”, -1.18.

For the sequence “HMGVDASVDSKLDLLSQVLDSDQVKEQLPEAVLEQLAQNLDRWRSLHEESELQDDDIAELNRLLGLFGLG”, the “soluble fraction (log2)” value came out at 0.111.

As for “HMGVEKHLRITGTSTVSWKDAIVQAVAEASKTIDYLSNVKIIEQRARIDGKKLVEYFVDLDLSFVID”, the “soluble fraction (log2)” value was -0.23. With “HMGVGITAPLAGNIFKIVVQPGDVVASGDVVLVLEAMKMETEIRAASGGTVSQVLVREGDAVDAGHTLITL”, the “soluble fraction (log2)” value was -2.85. As for “HMGVGVTAPLAGNIFKIVKQPGDVVASGDVVLILEAMKMETEIRAAAGGTVKQVLVREGDAVDAGHTLMTL”, the figure is -1.38; as for “HMGVHSVVPDIKNKHYGEAKAILAANGLSIEISDSIYDRSVAPGTVVESWPKAGAIVKGDRAVFVTLTAF”, -1.61.
